Laboratory results from patent publication US20240207432A1 (BIOSION, published 2024).
Read-outs that look alike come from different tables or passages of the source.

Columns and labels:
[1] = target: T1, full length human TROP2 on 293F-TROP2 cells (human, UniProt P09758 27-323); test: FACS on 293F-TROP2 cells, MFI
T1 construct: also called 293F-TROP2 cells (clone ID #3A8); cell surface TROP2
T1 sequence: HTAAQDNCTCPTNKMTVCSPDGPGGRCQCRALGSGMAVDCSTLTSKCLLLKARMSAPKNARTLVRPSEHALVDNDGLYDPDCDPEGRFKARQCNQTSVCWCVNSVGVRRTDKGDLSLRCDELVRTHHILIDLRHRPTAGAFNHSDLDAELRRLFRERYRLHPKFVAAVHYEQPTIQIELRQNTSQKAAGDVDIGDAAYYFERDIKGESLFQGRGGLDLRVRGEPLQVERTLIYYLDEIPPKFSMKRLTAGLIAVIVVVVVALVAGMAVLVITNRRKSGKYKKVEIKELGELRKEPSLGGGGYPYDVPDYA
Procedure: The binding activity of the mouse anti-TROP2 antibodies to cell surface TROP2 proteins was tested by flow cytometry (FACS), using Biosion in-house prepared 293F-TROP2 cells (clone ID #3A8) stably expressing full length human TROP2s (uniprot #P09758, SEQ ID NO.: 71) on cell membrane. The 293F-TROP2 cells were prepared by transfecting 293F cells (Thermofisher Inc., Cat #11625019) with a pCMV-T-P plasmid inserted with human TROP2 coding sequence between EcoRI and XbaI sites, following the instruction of lipofectamine 3000 transfection reagent (Thermo Fisher).
The 293F-TROP2 cells were harvested from cell culture flasks, washed twice and re-suspended in phosphate buffered saline (PBS) containing 2% v/v Fetal Bovine Serum (FACS buffer). […] Following an incubation of 40 minutes at 4° C. in dark, cells were washed twice and re-suspended in FACS buffer. Fluorescence was measured using a Becton Dickinson FACS Canto II-HTS equipment, and the MFI (mean fluorescence intensity) was plotted against antibody concentration. Data was analyzed using Graphpad Prism software and EC₅₀ values were reported.

[2] = target: T2, cynomolgus TROP2-his protein (cynomolgus monkey, UniProt P09758 27-272 (human entry), limits assumed); test: indirect ELISA, cynomolgus TROP2-his coated at 2 ug/mL, OD(450-630)
T2 construct: no cleavage site is stated; also called Cynomolgus monkey TROP2-his protein; monkey TROP2
T2 chain: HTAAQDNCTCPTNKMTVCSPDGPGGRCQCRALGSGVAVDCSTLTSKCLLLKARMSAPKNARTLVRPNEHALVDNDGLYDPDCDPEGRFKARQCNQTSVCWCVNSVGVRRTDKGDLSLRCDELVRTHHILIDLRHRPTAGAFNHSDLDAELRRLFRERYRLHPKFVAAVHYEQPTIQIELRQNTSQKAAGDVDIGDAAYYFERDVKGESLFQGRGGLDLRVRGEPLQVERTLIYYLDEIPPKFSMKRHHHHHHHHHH
Procedure: (§1) The anti-TROP2 antibodies of the disclosure were tested for their cross-reaction with cynomolgus TROP2 proteins. Briefly, 96-well micro plates were coated with 100 μl 2 μg/ml cynomolgus TROP2-his proteins (prepared in-house with SEQ ID NO: 70) in carbonate/bicarbonate buffer (pH 9.6) overnight at 4° C. ELISA plates were washed once with wash buffer (PBS+0.05% v/v Tween-20, PBST) and then blocked with 200 μl/well blocking buffer (5% w/v non-fatty milk in PBST) for 2 hours at 37° C. […] After a final wash, plates were incubated with 100 μl/well TMB (Innoreagents) at room temperature. The reaction was stopped 3-10 minutes later at room temperature with 50 μl/well 1M H₂SO₄, and the absorbance of each well was read on a microplate reader using dual wavelength mode with 450 nm for TMB and 630 nm as the reference wavelength. The OD (450-630) values were plotted against antibody concentration. Data was analyzed using Graphpad Prism software and EC₅₀ values were reported.

human TROP2-his protein [3] = target: T3, human TROP2-his protein (human, UniProt P09758 27-274); test: SPR Biacore T200, mAb captured on anti-mouse IgG CM5 chip, TROP2-his analyte
T3 construct: Biotin-labelled in the ELISAs, unlabelled analyte in Biacore; also called biotin-labeled human TROP2-his protein; biotin human Trop2-his
T3 sequence: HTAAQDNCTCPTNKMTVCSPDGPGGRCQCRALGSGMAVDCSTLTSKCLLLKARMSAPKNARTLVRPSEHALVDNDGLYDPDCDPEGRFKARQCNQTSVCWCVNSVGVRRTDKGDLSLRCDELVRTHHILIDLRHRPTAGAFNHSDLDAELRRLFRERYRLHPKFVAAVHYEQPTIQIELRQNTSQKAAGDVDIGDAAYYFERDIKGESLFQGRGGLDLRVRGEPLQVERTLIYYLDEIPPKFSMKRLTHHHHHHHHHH
Procedure: (§2) Un-reacted moieties on the chip (biosensor) surface were blocked with ethanolamine. […] The antigen-antibody association kinetics was followed for 2 minutes and the dissociation kinetics was followed for 10 minutes. The association and dissociation curves were fit to a 1:1 Langmuir binding model using BIAcore evaluation software.

[4] = target: T2, cynomolgus TROP2-his protein; test: as above
Procedure: as §2

human TROP2-his protein [5] = target: T3, human TROP2-his protein; test: capture ELISA, antibody captured on anti-mouse IgG Fc coat, biotin human TROP2-his in solution, OD(450-630)
Procedure: Plates were washed once with wash buffer (PBS+0.05% v/v Tween-20, PBST) and then blocked with 200 μl/well blocking buffer (5% w/v non-fatty milk in PBST) for 2 hours at 37° C. […] Plates containing captured anti-TROP2 antibodies were incubated with biotin-labeled human TROP2-his protein (prepared in house, SEQ ID NO: 67, 56.7 ng/mL in 2.5% w/v non-fatty milk in PBST, 100 μl/well) for 40 minutes at 37° C., washed 4 times, and incubated with streptavidin conjugated HRP (1:10000 dilution in PBST, Jackson Immuno Research, Cat #016-030-084, 100 μl/well) for 40 minutes at 37° C. After a final wash, plates were incubated with 100 μl/well ELISA substrate TMB (Innoreagents, Cat #TMB-S-002) at room temperature. The reaction was stopped in 3-10 minutes at room temperature with 50 μl/well 1M H₂SO₄, and the absorbance of each well was read on a microplate reader using dual wavelength mode with 450 nm for TMB and 630 nm as the reference wavelength. The OD (450-630) values were plotted against antibody concentration. Data was analyzed using Graphpad Prism software and EC₅₀ values were reported.

human TROP2-his protein [6] = target: T3, human TROP2-his protein; test: competitive ELISA: BM1 coated at 1 ug/mL, antibody premixed with biotin human TROP2-his; blocked: binding of TROP2-his to coated BM1
Procedure: The mouse anti-TROP2 antibodies were tested for epitope binding in a competitive ELISA assay. […] ELISA plates were washed once with wash buffer (PBS+0.05% v/v Tween-20, PBST) and then blocked with 200 μl blocking buffer (5% w/v non-fatty milk in PBST) for 2 hours at 37° C. While blocking, the anti-TROP2 antibodies or controls were diluted with biotin labeled human TROP2-his protein (SEQ ID NO: 67, 34 ng/mL in 2.5% wA non-fatty milk in PBST), starting at 80 nM with a 5-fold serial dilution, and incubated at room temperature for 40 minutes. After plate washing for 4 times, the antibody/TROP2-his protein mixtures were added to the antibody coated plates, 100 μl per well. After incubation at 37° C. for 40 minutes, plates were washed 4 times again using wash buffer. Then the plates were added and incubated with 100 μl Peroxidase Streptavidin (1:10000 dilution in PBST buffer. Jackson Immunoresearch, Cat #016-030-084) for 40 minutes at 37° C. Plates were washed again using wash buffer. Finally, TMB was added and the reaction was stopped using 1M H₂SO₄. The absorbance of each well was read on a microplate reader using dual wavelength mode with 450 nm for TMB and 630 nm as the reference wavelength, and the OD (450-630) values were plotted against antibody concentration. Data was analyzed using Graphpad Prism software and IC₅₀ values were reported.

[7] = target: T2, cynomolgus TROP2-his protein; test: indirect ELISA, cynomolgus TROP2-his coated at 2 ug/mL, OD(450-630)
Procedure: as §1

human TROP2-his protein [8] = target: T3, human TROP2-his protein; test: SPR Biacore, human TROP2-his analyte
[9] = target: T1, full length human TROP2 on 293F-TROP2 …; test: FACS on 293F-TROP2 cells, MFI; remark: listed apart in the source
human TROP2-his protein [10] = target: T3, human TROP2-his protein; test: epitope grouping ELISA, 15 ug/ml antibody premixed with biotin human TROP2-his; competitor: coated BM1
Procedure: (§3) Firstly, capture ELISA was performed to determine the concentration of biotin-labeled human Trop2 proteins appropriate for the epitope binning test. […] The plates were washed for 4 times, added with 100 μl/well of serially diluted biotin human Trop2-his proteins (SEQ ID NO: 67) in PBST with 2.5% non-fatty milk (starting from 1.3 μg/ml with a 5-fold serial dilution), and incubated for 40 min at 37° C. Then the plates were washed for 4 times and added with 100 μl/vell of HRP-streptavidin (Jackson Immuno Research, Cat #016-030-084). The plates were incubated for another 40 min at 37° C. Then the plates were washed again, and 100 μl/well TMB was added for color development at RT for 15 min followed by quenching with 50 μl 1M H₂SO₄. The OD values at 450 nm were read.
(§4) With the appropriate concentration determined above, epitope grouping ELISA was performed. […] ELISA plates were washed once with wash buffer (PBS+0.05% v/v Tween-20, PBST) and then blocked with 200 μl blocking buffer (5% w/w non-fatty milk in PBST) for 2 hours at 37° C. […] The mixtures were incubated at room temperature for 40 minutes. After plate washing for 4 times, the antibody/biotin-TROP2-his protein mixtures were added to the antibody coated plates, 100 μl per well, and incubated for another 40 min at 37° C. Then 100 μl/well of HRP-streptavidin was added and incubated for 40 min. Then OD₄₅₀ values were determined and the cross-competition capability was calculated (cross-competition capability of antibody X (%)=(OD₄₅₀ of Antibody X-[…] of Blank)/(OD₄₅₀ of no mAb-OD₄₃₀ of Blank)*100%).

human TROP2-his protein [11] = target: T3, human TROP2-his protein; test: epitope grouping ELISA, 15 ug/ml antibody premixed with biotin human TROP2-his; competitor: coated BM2
Procedure: as §3, §4

human TROP2-his protein [12] = target: T3, human TROP2-his protein; test: epitope grouping ELISA, 15 ug/ml antibody premixed with biotin human TROP2-his; competitor: coated huA1E4F7D4-V16
Procedure: as §3, §4

B1: mouse antibody A1B12D2B4E7B3 (antibody, V domains shown)
VH: EVQLQQSGPELVKPGASVKMSCKASGFTFTDYYMNWVKQSHGKSLEWIGYIYPNHGGTGYNQKFKDKATLTVDKSSSTAYMELRSLTSDDSAVYYCARENYGYAMDYWGQGTSVTVSS
VL: DVVMTQTPLSLPVSLGDQASISCRSSQSLVHGDGNTYLHWFLQKPGQSPKLLIYTVSNRFSGVPDRFSGSGSGTDFTLKINRVEAEDLGIYFCSQTTHVPTFGGGTKLEIK
notes: Mouse monoclonal IgG purified from hybridoma supernatant
EC50 [1]: 0.896 nM | EC50 [2]: 0.578 nM | Kd (human TROP2-his protein [3]): 1.06 nM | koff (human TROP2-his protein [3]): 8.92e-05 s⁻¹ | kon (human TROP2-his protein [3]): 84000 M⁻¹ s⁻¹ | Kd [4]: 1.12 nM | koff [4]: 0.000124 s⁻¹ | kon [4]: 111000 M⁻¹ s⁻¹ | EC50 (human TROP2-his protein [5]): 0.248 nM | IC50 (human TROP2-his protein [6]): 1.55 nM

B2: mouse antibody B1G1F5A3 (antibody, V domains shown)
VH: EVQLQQSGPELVKPGTSVKMSCKASGYSFADYSMNWVRQSHGNSLEWIGYIYPNNGASGFNQKFKGKATLTVDKSSSTAYMELHSLTSEDSAVYYCAREQDNSGYCFDYWGQGTSLTVSS
VL: DVVMTQTPLSLAVRLGDQASISCRSSLNLVHSNGNTFLHWYLQRPGQSPKLLIYKVSNRFSGVSDRFSGSGSGTDFTLKISRVEAEDLGVYFCSQTTHVPTFGGGTKLEIK
notes: as for B1
EC50 [7]: 0.863 nM | Kd (human TROP2-his protein [3]): 0.416 nM | koff (human TROP2-his protein [3]): 5.58e-05 s⁻¹ | kon (human TROP2-his protein [3]): 134000 M⁻¹ s⁻¹ | Kd [4]: 0.568 nM | koff [4]: 8.86e-05 s⁻¹ | kon [4]: 156000 M⁻¹ s⁻¹ | EC50 (human TROP2-his protein [5]): 0.335 nM | IC50 (human TROP2-his protein [6]): 0.516 nM

B3: BM2 (in house made analog of Datopotamab) (antibody, human IgG1, kappa, V domains shown)
VH: QVQLVQSGAEVKKPGASVKVSCKASGYTFTTAGMQWVRQAPGQGLEWMGWINTHSGVPKYAEDFKGRVTISADTSTSTAYLQLSSLKSEDTAVYYCARSGFGSSYWYFDVWGQGTLVTVSS
VL: DIQMTQSPSSLSASVGDRVTITCKASQDVSTAVAWYQQKPGKAPKLLIYSASYRYTGVPSRFSGSGSGTDFTLTISSLQPEDFAVYYCQQHYITPLTFGQGTKLEIKR
Kd (human TROP2-his protein [8]): 28.7 nM | koff (human TROP2-his protein [8]): 0.00364 s⁻¹ | kon (human TROP2-his protein [8]): 127000 M⁻¹ s⁻¹ | EC50 [9]: 0.908 nM | OD450 (human TROP2-his protein [10]): 0.519 OD450 | OD450 (human TROP2-his protein [11]): 0.354 OD450 | OD450 (human TROP2-his protein [12]): 1.63 OD450
